Measured values taken from publication PMC3858362, “A Soluble Fucose-Specific Lectin from Aspergillus fumigatus Conidia - Structure, Specificity and Possible Role in Fungal Pathogenicity” (PLoS ONE, 2013).

Biological target: the molecule itself
Experiment: AUC; sedimentation velocity; AFL 0.04-0.30 mg/ml in 20 mM Tris/HCl, 300 mM NaCl, pH 7.4; 20 °C, 42,000 rpm; continuous c(s) analysis in Sedfit

B1: Aspergillus fumigatus lectin (AFL), recombinant (natural protein)
chain: MSTPGAQQVLFRTGIAAVNSTNHLRVYFQDVYGSIRESLYEGSWANGTEKNVIGNAKLGSPVAATSKELKHIRVYTLTEGNTLQEFAYDSGTGWYNGGLGGAKFQVAPYSCIAAVFLAGTDALQLRIYAQKPDNTIQEYMWNGDGWKEGTNLGGALPGTGIGATSFRYTDYNGPSIRIWFQTDDLKLVQRAYDPHKGWYPDLVTIFDRAPPRTAIAATSFGAGNSSIYMRIYFVNSDNTIWQVCWDHGKGYHDKGTITPVIQGSEVAIISWGSFANNGPDLRLYFQNGTYISAVSEWVWNRAHGSQLGRSALPPA
notes: Fucose-specific lectin AFL of Aspergillus fumigatus, gene AFUA_5G14740 (Af293 genome); cloned from a commercial cDNA library of A. fumigatus ATCC 13073 with primers from the start ATG to an in-frame stop codon; 314 aa long without the initial Met; Cloned NdeI/HindIII into pET29a with its own stop codon; no tag is mentioned; also called rAFL; AfuFleA
stoichiometry N: 2
